Molecular target: human BCMA-His (human) (UniProt Q02223)
Assay: BLI (Octet), 1:1 fit

Sequence of human BCMA-His (human) (Q02223 1-54): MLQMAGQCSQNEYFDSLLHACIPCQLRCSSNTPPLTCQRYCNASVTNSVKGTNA
Sequence of REGN-BCMA/CD3 (REGN5458) (bispecific antibody) (VH): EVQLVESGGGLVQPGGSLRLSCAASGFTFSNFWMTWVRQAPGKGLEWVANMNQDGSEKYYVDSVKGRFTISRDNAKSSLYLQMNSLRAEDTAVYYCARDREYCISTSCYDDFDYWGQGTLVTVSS
Sequence of REGN-BCMA/CD3 (REGN5458) (bispecific antibody) (VL): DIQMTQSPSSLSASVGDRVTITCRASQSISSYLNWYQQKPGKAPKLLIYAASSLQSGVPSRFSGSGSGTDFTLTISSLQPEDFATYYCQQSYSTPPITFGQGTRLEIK
Sequence of REGN-BCMA/CD3 (REGN5458) (bispecific antibody) (chain): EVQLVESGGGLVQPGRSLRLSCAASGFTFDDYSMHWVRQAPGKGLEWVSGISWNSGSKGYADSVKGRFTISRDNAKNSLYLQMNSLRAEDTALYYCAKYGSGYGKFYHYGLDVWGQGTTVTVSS
Sequence of JNJ-BCMA/CD3 (Teclistamab) (bispecific antibody) (heavy): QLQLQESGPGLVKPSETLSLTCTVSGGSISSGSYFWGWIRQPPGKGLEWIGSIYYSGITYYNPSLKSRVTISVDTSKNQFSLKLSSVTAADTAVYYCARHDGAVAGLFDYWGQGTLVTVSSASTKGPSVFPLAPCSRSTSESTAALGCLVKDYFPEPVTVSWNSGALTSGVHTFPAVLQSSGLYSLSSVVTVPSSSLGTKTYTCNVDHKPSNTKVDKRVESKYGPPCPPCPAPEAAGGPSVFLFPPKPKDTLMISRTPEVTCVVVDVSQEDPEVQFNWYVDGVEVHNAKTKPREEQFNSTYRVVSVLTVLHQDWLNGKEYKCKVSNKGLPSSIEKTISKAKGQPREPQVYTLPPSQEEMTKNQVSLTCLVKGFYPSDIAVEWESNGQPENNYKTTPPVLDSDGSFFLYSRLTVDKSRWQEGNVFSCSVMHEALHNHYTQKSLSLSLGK
Sequence of JNJ-BCMA/CD3 (Teclistamab) (bispecific antibody) (light): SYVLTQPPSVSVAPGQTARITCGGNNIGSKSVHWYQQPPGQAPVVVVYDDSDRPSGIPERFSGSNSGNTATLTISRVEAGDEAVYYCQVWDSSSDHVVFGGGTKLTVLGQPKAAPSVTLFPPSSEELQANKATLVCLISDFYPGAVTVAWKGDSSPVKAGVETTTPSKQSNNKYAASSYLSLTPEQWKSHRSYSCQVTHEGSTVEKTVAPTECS
Sequence of JNJ-BCMA/CD3 (Teclistamab) (bispecific antibody) (heavy): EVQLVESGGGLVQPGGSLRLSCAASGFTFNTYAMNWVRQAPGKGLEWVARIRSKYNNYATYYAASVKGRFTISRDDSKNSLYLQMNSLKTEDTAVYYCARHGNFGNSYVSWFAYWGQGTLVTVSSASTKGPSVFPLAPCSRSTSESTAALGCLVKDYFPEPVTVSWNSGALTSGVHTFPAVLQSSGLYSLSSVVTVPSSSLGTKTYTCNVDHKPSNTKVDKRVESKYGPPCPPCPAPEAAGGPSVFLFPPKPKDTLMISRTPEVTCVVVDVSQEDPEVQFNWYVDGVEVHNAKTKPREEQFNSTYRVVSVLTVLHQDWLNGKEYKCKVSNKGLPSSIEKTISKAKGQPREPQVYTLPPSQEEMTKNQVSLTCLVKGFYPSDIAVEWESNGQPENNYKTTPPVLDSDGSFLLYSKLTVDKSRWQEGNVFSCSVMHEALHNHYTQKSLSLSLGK
Sequence of JNJ-BCMA/CD3 (Teclistamab) (bispecific antibody) (light): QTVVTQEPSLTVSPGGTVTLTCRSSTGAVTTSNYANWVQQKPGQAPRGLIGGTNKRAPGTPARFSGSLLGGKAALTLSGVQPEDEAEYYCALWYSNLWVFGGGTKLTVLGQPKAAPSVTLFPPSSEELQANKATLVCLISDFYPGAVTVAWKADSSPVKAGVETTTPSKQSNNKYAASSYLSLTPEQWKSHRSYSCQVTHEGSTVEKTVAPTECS

Compared with “REGN-BCMA/CD3 (REGN5458) (bispecific antibody)”, “Roche-BCMA/CD3 (Alnuctamab) (bispecific antibody)” is 5.5-fold lower in Kd: 1130 pM for the first, 205 pM for the second.

Substance “JNJ-BCMA/CD3 (Teclistamab) (bispecific antibody)” has a Kd of 435 pM.

First: REGN-BCMA/CD3 (REGN5458) (bispecific antibody)
Second: Roche-BCMA/CD3 (Alnuctamab) (bispecific antibody)
The koff of the first is 3-fold higher: 0.000792 s⁻¹ for the first, 0.000262 s⁻¹ for the second.

“JNJ-BCMA/CD3 (Teclistamab) (bispecific antibody)” gave a koff of 0.000722 s⁻¹.

Compared with “REGN-BCMA/CD3 (REGN5458) (bispecific antibody)”, “Roche-BCMA/CD3 (Alnuctamab) (bispecific antibody)” is 1.8-fold higher in kon: 701000 M⁻¹ s⁻¹ for the first, 1.28e+06 M⁻¹ s⁻¹ for the second.

For “JNJ-BCMA/CD3 (Teclistamab) (bispecific antibody)”, the kon was 1.66e+06 M⁻¹ s⁻¹.
